Assay results from the Human Domainome abundance scans (Beltran et al. 2025).
± gives the uncertainty stated by the source.

B1: Serine/threonine-protein kinase A-Raf, residues 21 to 89; numbered along this chain, P10398 (parent)
chain: VKVYLPNKQRTVVTVRDGMSVYDSLDKALKVRGLNQDCCVVYRLIKGRKTVTAWDTAIAPLDGEELIVE
B2: Formin-binding protein 4, residues 593 to 636; numbered along this chain, Q8N3X1 (parent)
chain: EINATPKGWSCHWDRDHRRYFYVNEQSGESQWEFPDGEEEEEES

Variants of: B1
Experiment: abundance fitness (aPCA) (normalised: wild type 0, dead -1); higher = more abundant; growth selection in yeast, the domain comes from the species named
Details: Homo sapiens

**Q.** Which abundance fitness does the source give for P60L here?
**A.** The abundance fitness was 0.001 ± 0.045.

**Q.** For P60Y, which abundance fitness is on record?
**A.** The abundance fitness was 0.043 ± 0.14.

**Q.** For P60E, which abundance fitness is on record?
**A.** Its abundance fitness is 0.064 ± 0.059.

**Q.** With P60H as the variant, how does the abundance fitness read?
**A.** Its abundance fitness is -0.06 ± 0.18.

**Q.** With P60F as the variant, how does the abundance fitness read?
**A.** The abundance fitness was -0.036 ± 0.13.

**Q.** For P60S, which abundance fitness is on record?
**A.** The abundance fitness was 0.098 ± 0.08.

**Q.** Which abundance fitness does the source give for P60V here?
**A.** The abundance fitness was -0.04 ± 0.051.

**Q.** For P60K, which abundance fitness is on record?
**A.** The abundance fitness was 0.024 ± 0.057.

**Q.** For I67F, which abundance fitness is on record?
**A.** The abundance fitness was 0.252 ± 0.13.

**Q.** For D62R, which abundance fitness is on record?
**A.** Its abundance fitness is -0.049 ± 0.042.

**Q.** With D62E as the variant, how does the abundance fitness read?
**A.** The abundance fitness was -0.128 ± 0.073.

**Q.** With D62I as the variant, how does the abundance fitness read?
**A.** Its abundance fitness is -0.015 ± 0.12.

**Q.** With D62F as the variant, how does the abundance fitness read?
**A.** The abundance fitness was -0.608 ± 0.19.

**Q.** With D62M as the variant, how does the abundance fitness read?
**A.** The abundance fitness was -0.062 ± 0.087.

**Q.** Which abundance fitness does the source give for D62S here?
**A.** The abundance fitness was 0.036 ± 0.058.

**Q.** Which abundance fitness does the source give for D62H here?
**A.** The abundance fitness was -0.073 ± 0.12.

**Q.** Which abundance fitness does the source give for D62T here?
**A.** The abundance fitness was -0.111 ± 0.056.

**Q.** For D62A, which abundance fitness is on record?
**A.** Its abundance fitness is 0.004 ± 0.064.

**Q.** Which abundance fitness does the source give for D62Y here?
**A.** Its abundance fitness is -0.311 ± 0.16.

**Q.** Which abundance fitness does the source give for D62L here?
**A.** The abundance fitness was -0.078 ± 0.054.

**Q.** With D62K as the variant, how does the abundance fitness read?
**A.** Its abundance fitness is -0.097 ± 0.077.

**Q.** Which abundance fitness does the source give for D62C here?
**A.** Its abundance fitness is 0.13 ± 0.2.

**Q.** Which abundance fitness does the source give for D62G here?
**A.** Its abundance fitness is -0.047 ± 0.045.

**Q.** With D62P as the variant, how does the abundance fitness read?
**A.** The abundance fitness was -0.095 ± 0.073.

**Q.** Which abundance fitness does the source give for D62N here?
**A.** Its abundance fitness is -0.051 ± 0.21.

**Q.** Which abundance fitness does the source give for V68A here?
**A.** The abundance fitness was -0.391 ± 0.41.

**Q.** With V68I as the variant, how does the abundance fitness read?
**A.** The abundance fitness was -0.127 ± 0.22.

Variants of: B2
Experiment: as above
Details: Homo sapiens

**Q.** With R18M as the variant, how does the abundance fitness read?
**A.** Its abundance fitness is -0.124 ± 0.13.

**Q.** With D14W as the variant, how does the abundance fitness read?
**A.** Its abundance fitness is -1.4 ± 0.11.

**Q.** With E38W as the variant, how does the abundance fitness read?
**A.** Its abundance fitness is -0.314 ± 0.13.

**Q.** With E38T as the variant, how does the abundance fitness read?
**A.** The abundance fitness was -0.014 ± 0.066.

**Q.** For W32C, which abundance fitness is on record?
**A.** The abundance fitness was -0.305 ± 0.11.

**Q.** Which abundance fitness does the source give for W13F here?
**A.** The abundance fitness was -0.095 ± 0.18.

**Q.** With W13S as the variant, how does the abundance fitness read?
**A.** Its abundance fitness is -0.662 ± 0.079.

**Q.** Which abundance fitness does the source give for W13D here?
**A.** The abundance fitness was -0.71 ± 0.14.

**Q.** Which abundance fitness does the source give for W13R here?
**A.** The abundance fitness was -0.738 ± 0.065.

**Q.** For F34M, which abundance fitness is on record?
**A.** Its abundance fitness is -0.07 ± 0.096.

**Q.** For Y20C, which abundance fitness is on record?
**A.** Its abundance fitness is -0.196 ± 0.12.

**Q.** Which abundance fitness does the source give for Y20W here?
**A.** Its abundance fitness is 0.072 ± 0.07.

**Q.** With Y20M as the variant, how does the abundance fitness read?
**A.** The abundance fitness was -0.205 ± 0.12.

**Q.** For S30H, which abundance fitness is on record?
**A.** Its abundance fitness is -0.354 ± 0.17.

**Q.** With G37R as the variant, how does the abundance fitness read?
**A.** Its abundance fitness is -0.222 ± 0.068.

**Q.** For E25A, which abundance fitness is on record?
**A.** The abundance fitness was -0.179 ± 0.078.

**Q.** For V23T, which abundance fitness is on record?
**A.** Its abundance fitness is 0.324 ± 0.21.

**Q.** Which abundance fitness does the source give for V23D here?
**A.** The abundance fitness was -0.513 ± 0.14.

**Q.** With V23G as the variant, how does the abundance fitness read?
**A.** Its abundance fitness is -0.607 ± 0.059.

**Q.** Which abundance fitness does the source give for Q31W here?
**A.** The abundance fitness was -0.613 ± 0.062.

**Q.** With Q31F as the variant, how does the abundance fitness read?
**A.** Its abundance fitness is -0.416 ± 0.082.

**Q.** With S27Q as the variant, how does the abundance fitness read?
**A.** Its abundance fitness is -0.613 ± 0.12.

**Q.** With R15I as the variant, how does the abundance fitness read?
**A.** Its abundance fitness is 0.373 ± 0.23.

**Q.** For R15W, which abundance fitness is on record?
**A.** The abundance fitness was -0.315 ± 0.1.

**Q.** For R15E, which abundance fitness is on record?
**A.** The abundance fitness was 0.123 ± 0.07.

**Q.** Which abundance fitness does the source give for N3C here?
**A.** Its abundance fitness is -0.304 ± 0.2.

**Q.** Which abundance fitness does the source give for N3V here?
**A.** The abundance fitness was -0.093 ± 0.11.

**Q.** With N3Q as the variant, how does the abundance fitness read?
**A.** The abundance fitness was 0.041 ± 0.084.

**Q.** With N3A as the variant, how does the abundance fitness read?
**A.** The abundance fitness was -0.177 ± 0.088.

**Q.** For N3R, which abundance fitness is on record?
**A.** Its abundance fitness is -0.169 ± 0.085.

**Q.** With G28Q as the variant, how does the abundance fitness read?
**A.** The abundance fitness was -0.337 ± 0.11.

**Q.** Which abundance fitness does the source give for G28L here?
**A.** The abundance fitness was -0.363 ± 0.071.

**Q.** With E33T as the variant, how does the abundance fitness read?
**A.** The abundance fitness was -0.078 ± 0.08.

**Q.** For H17L, which abundance fitness is on record?
**A.** Its abundance fitness is 0.007 ± 0.078.

**Q.** Which abundance fitness does the source give for D16H here?
**A.** Its abundance fitness is -0.168 ± 0.088.

**Q.** Which abundance fitness does the source give for D16Q here?
**A.** Its abundance fitness is -0.075 ± 0.12.

**Q.** Which abundance fitness does the source give for D16L here?
**A.** The abundance fitness was -0.447 ± 0.069.

**Q.** Which abundance fitness does the source give for D16F here?
**A.** Its abundance fitness is -0.362 ± 0.17.

**Q.** With R19P as the variant, how does the abundance fitness read?
**A.** Its abundance fitness is -1.24 ± 0.3.

**Q.** Which abundance fitness does the source give for S44G here?
**A.** Its abundance fitness is 0.083 ± 0.098.

**Q.** For W9P, which abundance fitness is on record?
**A.** The abundance fitness was -0.512 ± 0.09.

**Q.** For W9R, which abundance fitness is on record?
**A.** The abundance fitness was -0.817 ± 0.071.

**Q.** Which abundance fitness does the source give for S10V here?
**A.** The abundance fitness was -0.186 ± 0.1.

**Q.** For S10M, which abundance fitness is on record?
**A.** Its abundance fitness is -0.389 ± 0.15.

**Q.** For S10H, which abundance fitness is on record?
**A.** The abundance fitness was -0.502 ± 0.29.

**Q.** With I2P as the variant, how does the abundance fitness read?
**A.** The abundance fitness was -0.094 ± 0.11.

**Q.** For I2R, which abundance fitness is on record?
**A.** The abundance fitness was -0.006 ± 0.091.

**Q.** Which abundance fitness does the source give for I2W here?
**A.** Its abundance fitness is -0.283 ± 0.1.

**Q.** For Y22E, which abundance fitness is on record?
**A.** The abundance fitness was -0.482 ± 0.2.

**Q.** For Y22K, which abundance fitness is on record?
**A.** The abundance fitness was 0.291 ± 0.34.

**Q.** For E40L, which abundance fitness is on record?
**A.** The abundance fitness was 0.008 ± 0.061.

**Q.** For E40M, which abundance fitness is on record?
**A.** Its abundance fitness is -0.127 ± 0.084.

**Q.** Which abundance fitness does the source give for E42W here?
**A.** The abundance fitness was -0.283 ± 0.087.

**Q.** For E42H, which abundance fitness is on record?
**A.** The abundance fitness was -0.009 ± 0.1.

**Q.** Which abundance fitness does the source give for T5M here?
**A.** Its abundance fitness is -0.054 ± 0.15.

**Q.** With H12S as the variant, how does the abundance fitness read?
**A.** Its abundance fitness is -0.453 ± 0.1.

**Q.** Which abundance fitness does the source give for E39P here?
**A.** Its abundance fitness is 0.041 ± 0.069.
